For this experiment, the target named is OX40 (receptor of OX40L) on tumor-infiltrating T cells of C57BL/6J mice (mouse) (UniProt P47741). As to the kind of experiment: cell-based or functional assay.
Sequence of UniProt P47741 (P47741 20-272): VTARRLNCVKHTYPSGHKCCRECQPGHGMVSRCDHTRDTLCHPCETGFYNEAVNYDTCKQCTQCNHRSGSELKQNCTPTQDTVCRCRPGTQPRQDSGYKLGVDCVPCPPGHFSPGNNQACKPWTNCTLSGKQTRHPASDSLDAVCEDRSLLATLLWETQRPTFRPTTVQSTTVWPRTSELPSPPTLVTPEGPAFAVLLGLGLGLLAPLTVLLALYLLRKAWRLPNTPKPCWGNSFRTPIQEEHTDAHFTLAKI

Substance “murine OX40L (muOX40L) polypeptide (ligand)” showed a percentages of OX40+FoxP3+CD4+ cells in injected tumors of WT mice (FACS) of 19%.

These data come from patent US20250179524A1.
